Numbering of substitutions follows the chain as printed. Numbers in names are those of the source.

Assay [1] addresses T1, human fibroblast activation protein (huFAP) expressed on cells (human, UniProt Q12884 1-760).
T1 construct: UniProt Q12884 printed; also called human FAP; hFAP
Description: flow cytometry, NIH/3T3-huFAP cells.
Description: (§1) Plates were centrifuged 5 minutes at 1700 rpm and supernatants were flicked off. […] Afterwards the cells were washed three times with 200 μL 4° C. cold FACS buffer. […] Data analysis was performed using the FlowJo version 10 software (FlowJo LLC).

The target of assay [2] is T2, human CD40 expressed on cells (human, UniProt P25942 21-277).
T2 construct: Endogenous CD40 on Raji, Daudi and primary human B cells; human CD40 on DCs of huCD40tg mice; also called huCD40; Raji cells
Description: flow cytometry, primary human B cells.
Description: as §1

Assay [3] deals with T1, human fibroblast activation protein …. Description: flow cytometry competition on huFAP-transfected HEK cells; unlabelled antibody titrated 0.2-60 µg/ml, then AF647-labelled 4B9 (20 µg/ml) as competitor.
Description: Briefly, the target cells were harvested with Cell Dissociation buffer, washed with FACS Buffer (PBS+2% FCS+5 mM EDTA+0.25% sodium acide) and seeded into 96-U bottom plates (1×10^5 cells/well).
In assay [4] the target is T3, biotinylated recombinant human FAP (human, UniProt Q12884 27-760, biotinylated (site not stated)).
T3 construct: also called biotinylated human FAP; recombinant huFAP
Description: SPR (Biacore), Fab.

In assay [5] the target is T3, biotinylated recombinant human FAP. Description: SPR (Biacore), biotinylated huFAP immobilized, Fab analyte.
Description: As running and dilution buffer, HBS-P+ (10 mM HEPES, 150 mM NaCl pH 7.4, 0.05% Surfactant P20) was used. A dilution series of anti-huFAP Fabs (3.7-300 nM, 1:3 dilution) was successively injected for 120s each, dissociation was monitored for 1800s at a flow rate of 30 μl/min (single cycle kinetics). The surface was regenerated by injecting 6 M guanidine-HCl, 0.25 M NaOH for 120 s. […] Curve fitting was performed using the 1:1 Langmuir binding model within the Biacore evaluation software.

B1: P1AE2487, CD40 (P1AE0817) x FAP (4B9) (2+1) C-terminal crossfab fusion (bispecific antibody)
chain 1: EIVLTQSPGTLSLSPGERATLSCRASQSVTSSYLAWYQQKPGQAPRLLINVGSRRATGIPDRFSGSGSGTDFTLTISRLEPEDFAVYYCQQGIMLPPTFGQGTKVEIKSSASTKGPSVFPLAPSSKSTSGGTAALGCLVKDYFPEPVTVSWNSGALTSGVHTFPAVLQSSGLYSLSSVVTVPSSSLGTQTYICNVNHKPSNTKVDKKVEPKSC
chain 2: DIVMTQTPLSLSVTPGQPASISCRSSQSLVHSNGNTFLHWYLQKPGQSPQLLIYTVSNRFSGVPDRFSGSGSGTDFTLKISRVEAEDVGVYFCSQTTHVPWTFGGGTKVEIKRTVAAPSVFIFPPSDEQLKSGTASVVCLLNNFYPREAKVQWKVDNALQSGNSQESVTEQDSKDSTYSLSSTLTLSKADYEKHKVYACEVTHQGLSSPVTKSFNRGEC
chain 3: not shown
chain 4: QVQLVQSGAEVKKPGASVKVSCKASGYSFTGYYIHWVRQAPGQSLEWMGRVIPNAGGTSYNQKFKGRVTLTVDKSISTAYMELSRLRSDDTAVYYCAREGIYWWGQGTTVTVSSASTKGPSVFPLAPSSKSTSGGTAALGCLVKDYFPEPVTVSWNSGALTSGVHTFPAVLQSSGLYSLSSVVTVPSSSLGTQTYICNVNHKPSNTKVDKKVEPKSCDKTHTCPPCPAPEAAGGPSVFLFPPKPKDTLMISRTPEVTCVVVDVSHEDPEVKFNWYVDGVEVHNAKTKPREEQYNSTYRVVSVLTVLHQDWLNGKEYKCKVSNKALGAPIEKTISKAKGQPREPQVCTLPPSRDELTKNQVSLSCAVKGFYPSDIAVEWESNGQPENNYKTTPPVLDSDGSFFLVSKLTVDKSRWQQGNVFSCSVMHEALHNHYTQKSLSLSPG
As for B1, the response in assay [1] was half-maximal at 3.7 nM (EC50).

B2: P1AE3377, CD40 (P1AE0817) x FAP (P1AE1689) (3+1) C-terminal crossfab fusion (bispecific antibody, human IgG1, kappa, L234A L235A)
light 1: QVQLVQSGAEVKKPGASVKVSCKASGYTLTDYNMDWVRQAPGQGLEWIGDIYPNTGGTIYNQKFKGRVTMTIDTSTSTVYMELSSLRSEDTAVYYCTRFRGIHYAMDYWGQGTTVTVSSASVAAPSVFIFPPSDEQLKSGTASVVCLLNNFYPREAKVQWKVDNALQSGNSQESVTEQDSKDSTYSLSSTLTLSKADYEKHKVYACEVTHQGLSSPVTKSFNRGEC
light 2: B1 chain 2 with E128R, Q129K
heavy 1: not shown
heavy 2: QVQLVQSGAEVKKPGASVKVSCKASGYSFTGYYIHWVRQAPGQSLEWMGRVIPNAGGTSYNQKFKGRVTLTVDKSISTAYMELSRLRSDDTAVYYCAREGIYWWGQGTTVTVSSASTKGPSVFPLAPSSKSTSGGTAALGCLVEDYFPEPVTVSWNSGALTSGVHTFPAVLQSSGLYSLSSVVTVPSSSLGTQTYICNVNHKPSNTKVDEKVEPKSCDGGGGSGGGGSQVQLVQSGAEVKKPGASVKVSCKASGYSFTGYYIHWVRQAPGQSLEWMGRVIPNAGGTSYNQKFKGRVTLTVDKSISTAYMELSRLRSDDTAVYYCAREGIYWWGQGTTVTVSSASTKGPSVFPLAPSSKSTSGGTAALGCLVEDYFPEPVTVSWNSGALTSGVHTFPAVLQSSGLYSLSSVVTVPSSSLGTQTYICNVNHKPSNTKVDEKVEPKSCDKTHTCPPCPAPEAAGGPSVFLFPPKPKDTLMISRTPEVTCVVVDVSHEDPEVKFNWYVDGVEVHNAKTKPREEQYNSTYRVVSVLTVLHQDWLNGKEYKCKVSNKALGAPIEKTISKAKGQPREPQVCTLPPSRDELTKNQVSLSCAVKGFYPSDIAVEWESNGQPENNYKTTPPVLDSDGSFFLVSKLTVDKSRWQQGNVFSCSVMHEALHNHYTQKSLSLSPG
notes: Trivalent for CD40, monovalent for FAP; knob-into-hole, P329G LALA Fc; also called CD40 x FAP (212) 3+1 crossfab
Consider B2, for which the figures for the half-maximal effective concentration (EC50) in assay [1] and in assay [2] were 4.94 nM and 0.038 nM, respectively.

B3: P1AE3378, CD40 (P1AE0817) x FAP (4B9) (3+1) with C-terminal crossfab fusion (bispecific antibody)
chain 1: B1 chain 1
chain 2: B1 chain 2
chain 3: not shown
chain 4: B2 heavy 2 with E144K, E210K, E372K, E438K
B3: the figures for the 50% effective concentration (EC50) in assay [1] and in assay [2] were 5.53 nM and 0.085 nM, respectively.

B4: anti-FAP antibody 28H1 (antibody, V domains shown)
VH: EVQLLESGGGLVQPGGSLRLSCAASGFTFSSHAMSWVRQAPGKGLEWVSAIWASGEQYYADSVKGRFTISRDNSKNTLYLQMNSLRAEDTAVYYCAKGWLGNFDYWGQGTLVTVSS
VL: EIVLTQSPGTLSLSPGERATLSCRASQSVSRSYLAWYQQKPGQAPRLLIIGASTRATGIPDRFSGSGSGTDFTLTISRLEPEDFAVYYCQQGQVIPPTFGQGTKVEIK
notes: also called FAP clone 28H1; FAP (28H1)
On to B4, for which the binding result in assay [3] is listed as “binds”.

B5: 4B9_Fab (Fab, V domains shown)
VH: EVQLLESGGGLVQPGGSLRLSCAASGFTFSSYAMSWVRQAPGKGLEWVSAIIGSGASTYYADSVKGRFTISRDNSKNTLYLQMNSLRAEDTAVYYCAKGWFGGFNYWGQGTLVTVSS
VL: B4 VL with S30T, R31S, I50N, G51V, A52G, T54R, Q93I, V94M, I95L
notes: Fab
With B5, in assay [4], the Kd turned out to be 0.279 nM, the “T ½” value worked out at 0.917 h, the koff was 0.000208 s⁻¹ and the on-rate (kon) came out at 747000 M⁻¹ s⁻¹. Further, in assay [5], the equilibrium dissociation constant (Kd) was 0.43 nM, the off-rate (koff) was 0.00078 s⁻¹ and the kon is 1.82e+06 M⁻¹ s⁻¹.

B6: P1AE1690_Fab (humanized clone 212, VH1G2a/VL1G1a) (Fab, V domains shown)
VH: QVQLVQSGAEVKKPGASVKVSCKASGYTLTDYNMDWVRQAPGKSLEWIGDIYPNTGGTIYNQKFKGRVTMTIDKSTSTVYMELSSLRSEDTAVYYCTRFRGIHYAMDYWGQGTTVTVSS
VL: EIVLTQSPATLSLSPGERATLSCRASESVDNYGLSFINWFQQKPGQAPRLLIYGTSNRGSGIPARFSGSGSGTDFTLTISSLEPEDFAVYFCQQSNEVPYTFGGGTKVEIK
notes: Fab
With B6, the “T ½” value in assay [4] was determined as 3.05 h.

B7: P1AE1693_Fab (humanized clone 212, VH1G2a/VL1G2a) (Fab, V domains shown)
VH: B6 VH
VL: B6 VL with A47P
notes: Fab
For the molecule B7, in assay [4], the “T ½” value stood at 2.68 h.

B8: P1AE1689_Fab (humanized clone 212, VH1G1a/VL1G1a) (Fab, V domains shown)
VH: B6 VH with K43Q, S44G, K74T
VL: B6 VL
notes: Fab
As for B8, in assay [4], the “T ½” value is 4.57 h.

B9: P1AE1702_Fab (humanized clone 212, VH2G2a/VL2G2a) (Fab, V domains shown)
VH: EVQLLESGGGLVQPGGSLRLSCAASGYTLTDYNMDWVRQAPGKGLEWVGDIYPNTGGTIYNQKFKGRFTISIDKSKNTAYLQMNSLRAEDTAVYYCTRFRGIHYAMDYWGQGTTVTVSS
VL: DIQMTQSPSSLSASVGDRVTITCRASESVDNYGLSFINWFQQKPGQPPKLLIYGTSNRGSGVPSRFSGSGSGTDFTLTISSLQPEDFAMYFCQQSNEVPYTFGGGTKVEIK
notes: Fab
B9: the “T ½” value in assay [4] amounted to 1.8 h.

(Values after patent publication US20210292426A1 (Hoffmann-La Roche, published 2021).)
